Laboratory results published in PMC4431178, “Molecular basis of sugar recognition by collectin-K1 and the effects of mutations associated with 3MC syndrome” (BMC Biology, 2015).

Biological target: T1, CL-K1 (Homo sapiens, UniProt Q9BWP8)
T1 construct: For full-length protein, the cDNA was cloned into the polylinker region of expression vector pED; made in house; host or cells: Chinese hamster ovary cells
Assay: Surface plasmon resonance of CL-K1 binding to glycoproteins
Settings: glycoprotein starting concentration 200 nM
Description: Figure 1 Glycoprotein binding and complement activation by CL-K1. A) Immunoblot of CL-K1 binding to immobilised mammalian and yeast glycoproteins. B) Surface plasmon resonance of CL-K1 binding to glycoproteins. […] C3b and its breakdown products were detected by absorbance using an anti-human C3c antibody with alkaline phosphatase-conjugated goat anti-rabbit secondary antibody and p-nitrophenyl phosphate as the substrate. Protein concentrations were calculated based on the molecular masses of CL-K1 and MBL trimers (78 kDa in each case). CL-K1, collectin-K1; MBL, mannan-binding lectin.
CL-K1 was immobilised on the surface of a GLM sensor chip (Bio-Rad Laboratories Ltd (Hemel Hempstead, UK)) by amine coupling. Binding was measured in 10 mM Tris–HCl, pH 7.4 containing 140 mM NaCl, 2 mM CaCl2 and 0.005% Tween 20 at a flow rate of 25 μl/minute and at 25°C. The protein surface was regenerated in buffer containing 1 M NaCl and 5 mM EDTA.

T1 sequence (Q9BWP8 26-271): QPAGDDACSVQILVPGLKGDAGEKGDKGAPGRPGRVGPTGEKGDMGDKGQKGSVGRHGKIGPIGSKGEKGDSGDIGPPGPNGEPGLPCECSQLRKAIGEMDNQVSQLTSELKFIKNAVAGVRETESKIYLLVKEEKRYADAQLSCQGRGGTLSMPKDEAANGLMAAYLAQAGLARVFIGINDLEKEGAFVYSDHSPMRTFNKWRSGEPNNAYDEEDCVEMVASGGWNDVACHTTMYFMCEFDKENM

binding to CL-K1 by surface plasmon resonance: not
B1: milk lactoferrin: human milk lactoferrin, contains complex sugars (protein, UniProt P02788 20-710, looked up)
Lactotransferrin: GRRRSVQWCAVSQPEATKCFQWQRNMRKVRGPPVSCIKRDSPIQCIQAIAENRADAVTLDGGFIYEAGLAPYKLRPVAAEVYGTERQPRTHYYAVAVVKKGGSFQLNELQGLKSCHTGLRRTAGWNVPIGTLRPFLNWTGPPEPIEAAVARFFSASCVPGADKGQFPNLCRLCAGTGENKCAFSSQEPYFSYSGAFKCLRDGAGDVAFIRESTVFEDLSDEAERDEYELLCPDNTRKPVDKFKDCHLARVPSHAVVARSVNGKEDAIWNLLRQAQEKFGKDKSPKFQLFGSPSGQKDLLFKDSAIGFSRVPPRIDSGLYLGSGYFTAIQNLRKSEEEVAARRARVVWCAVGEQELRKCNQWSGLSEGSVTCSSASTTEDCIALVLKGEADAMSLDGGYVYTAGKCGLVPVLAENYKSQQSSDPDPNCVDRPVEGYLAVAVVRRSDTSLTWNSVKGKKSCHTAVDRTAGWNIPMGLLFNQTGSCKFDEYFSQSCAPGSDPRSNLCALCIGDEQGENKCVPNSNERYYGYTGAFRCLAENAGDVAFVKDVTVLQNTDGNNNEAWAKDLKLADFALLCLDGKRKPVTEARSCHLAMAPNHAVVSRMDKVERLKQVLLHQQAKFGRNGSDCPDKFCLFQSETKNLLFNDNTECLARLHGKTTYEKYLGPQYVAGITNLKKCSTSPLLEACEFLRK
